The record followed here is PMC3605045, “GH1-family 6-P-β-glucosidases from human microbiome lactic acid bacteria” (Acta Crystallographica Section D: Biological Crystallography, 2013).

Substrate in this series: O=P(O)(O)OC[C@H]1O[C@@H](Oc2ccccc2CO)[C@H](O)[C@@H](O)[C@@H]1O
As to the kind of experiment: purified protein. Format: biochemical, Streptococcus mutans. The conditions noted are these: 0.1 M HEPES-NaOH pH 8.0, 2 mM NADP+, 298 K, SeMet-labelled enzyme 0.02 µM, substrate 10-2000 µM, 25.0 °C.

B1: SmBgl (Streptococcus mutans UA159) (protein)
chain: MSKLPENFLWGGAVAAHQLEGGWQEGGKGISVADVMTAGRHGVAREITAGVLEGKYYPNHEAIDFYHHYKEDVKLFAEMGFKCFRTSIAWTRIFPKGDEAEPNEAGLQFYDDLFDECLKYGIEPVVTLSHFELPYHLVTEYGGFTNRKVIDFFVHFAEVCFRRYKDKVKYWMTFNEINNQANYQEDFAPFTNSGIVYKEGDDREAIMYQAAHYELVASARAVKIGHAINPNLNIGCMVAMCPIYPATCNPKDILMAQKAMQKRYYFADVHVHGFYPEHIFKYWERKAIKVDFTERDKKDLFEGTVDYIGFSYYMSFVIDAHRENNPYYDYLETEDLVKNPYVKASDWDWQIDPQGLRYALNWFTDMYHLPLFIVENGFGAIDQVEADGMVHDDYRIDYLGAHIKEMIKAVDEDGVELMGYTPWGCIDLVSAGTGEMRKRYGFIYVDKDDEGKGTLKRSPKLSFNWYKEVIASNGDDI
notes: full length, 477 residues, ~55 kDa, homodimer; His6 cut by TEV, SNA- left at N-terminus; E. coli BL21 (DE3) Magic, pMCSG7; SeMet-labelled protein in kinetic assays
Take B1: the Michaelis-Menten constant (Km) (as a rule, the substrate concentration at which the rate is half of its maximum) is 1020 ± 70 µM.
